The values that follow come from patent publication US10731143B2, “Methods and compositions for stabilizing trans-splicing intein modified proteases” (AGRIVIDA, INC., priority 2014, dated 2020).

Data set [1] can be described thus: Formulation protocols and long term stability in 60% Detergent-1 under accelerated ageing. Format: physicochemical. The conditions noted are these: 1M KCl, sequential mixing of NI and IC into 60% Detergent-1. Here is the method:
FIG. 12 illustrates comparison of alternative protocols to detergent formulate NI and IC and evaluated formulations for long term stability. Two formulation protocols as follows were compared: 1) formulation by sequential mixing of unsalted NI and IC to the detergent (detergent+NI+IC) and 2) formulation of KCl stabilized (NI+IC) premix to detergent. Detergent-1 was used at 60% (v/v) in two formats, either without supplement (−), or KCl supplement was added to 1M final concentration (+). Purified NI and IC were each used at benchmarking conc. to 1% (v/v) Savinase, at 38.1 μmolar concentration each. (NI+IC) premix was prepared and formulated to the detergent essentially as described in Example 7. Formulations were stored at 37° C. under accelerated ageing conditions and storage stabilities were tested by assaying retention of dilution inducible iProtease activity over 8 weeks at t=0, 1, 3, 6 and 8 weeks in storage. Dilution inducible activity was assayed in sequential dilutions to assay buffer, from 40- to 5120-fold dilutions as described in Example 7. iProtease activities at the 2 min time point reads of the 1:1280-fold dilutions were normalized to dilution induced iProtease activity of the (NI+IC) premix in detergent without salt at t=0 and were plotted.

Data set [2] can be described thus: Stability of dilution inducible protease activity in three detergents under accelerated ageing. Format: physicochemical. The note with it: Savinase without the stabilizer (dialyzed), 37° C., up to 4 weeks. On the procedure:
Detergents were: Detergent-1, Detergent-2 and Detergent-3. For benchmarking 1% (v/v) Savinase was used, but instead of formulating the inhibitor stabilized form, the inhibitor was first removed by three steps of overnight dialysis of 0.5 mL Savinase against 5 L mTSB buffer at 4° C. using a Tube-O-Dialyzer Medi (4000 Da; GBiosciences). Volume of dialyzed Savinase in mTSB were adjusted to 1.5 mL, and 3 μL dialyzed aliquot treated with equal volume of 4M KCL was used to formulate 100 μL detergent to get 1% (v/v) of the Savinase. Sample handling was essentially the same as in Example 8, except that formulations were made to 65% detergents supplemented with KCL to 1M final conc.
Purified NI and IC were used at equimolar conc. to 1% (v/v) dialyzed Savinase, at […] concentration each. (NI+IC) premix in 2M KCl was prepared as described in Example 7, and formulations were made to 65% detergents supplemented with KCl to 1M final conc.
Detergent formulations were stored under accelerated ageing conditions at 37° C. Residual protease activities were assayed at five time points, at t=0, 1, 2, 3, and 4 weeks, in serial dilutions to assay buffer as described before. The 2 min reads of 1:2560-fold dilutions of each formulation was normalized to the t=0 as 100% and graphed. […]

Data set [3] can be described thus: Suppression of protease activity in Detergent-1 formulations. Format: biochemical. The conditions noted are these: formulations in Detergent-1.
Data set [4] in a line: Stability of stain removal activity in three detergents under accelerated ageing. The conditions noted are these: 37° C., up to 4 weeks, normalized to t=0. On the procedure: Formulations made for Example 15 were stored under accelerated ageing conditions at 37° C., and were evaluated for stain removal activity at five time points, at t=0, 1, 2, 3, and 4 weeks in storage.
The blood/milk/ink stained fabric of EMPA 117 was used in wash tests as described in Example 15. FIG. 17 illustrates stain removal stability under accelerated ageing conditions in three detergents. Three replicate washes were performed from each formulation at each time point. Referring to this figure, white light reflectance of the washed EMPA117 fabrics were normalized to their corresponding t=0 samples and were graphed.

Data set [5] is described as follows: Protease activity of KCl stabilized (NI+IC) premix and Savinase assayed in KCl. The conditions noted are these: formulated to 1M KCl aqueous buffer, diluted in KCl. It counts as biochemical. On the procedure:
iProtease activity was benchmarked to 1% (v/v) Savinase. Formulation of (NI+IC) and Savinase to 1M KCl aqueous buffer was the same as in Example 1, but enzyme activity was assayed in 2M KCl as follows: In a clear flat-bottomed half-volume 96 well plate, row A wells were preloaded with […] pH˜9.0, 50 μl 4 M KCl, and 35 μL H2O. Rows B-H were preloaded with 5 μl 1×BR buffer pH˜9.0, 25 μL 4 M KCl, and 20 μL H2O. 5 μl (NI+IC) formulation was added to row A, mixed by pipetting, then 50 μL of this 20× diluted sample was added to the 50 μl salt, buffer, and water in row B and mixed. […] This process of 2× serial dilutions was repeated for rows C-H. All samples were diluted an addition 2× by adding 50 μL 500 μM suc-FAAF-pNA (in 20% DMSO) substrate, yielding samples diluted from 40× in row A to 5120× in row H. Protease activity was assayed by reading absorbance at 400 nm at 30° C. FIGS. 9A-9B illustrate that KCl stabilized (NI+IC) premix has no enzyme activity. FIG. 9A illustrates iProtease activity of the 80-fold diluted (NI+IC) premix. […].

With `[Cl-].[K+]` [KCl, potassium chloride], in data set [1], the “boost of dilution inducible iProtease activity by supplementing the detergent” value was “approximately 3 fold”.

B1: Savinase: extracellular alkaline protease from Bacillus lentus (Uniprot P29600), SEQ ID NO: 6; Novozymes stock, intein unmodified reference enzyme (protein, listed as Bacillus lentus)
chain: MKKPLGKIVASTALLISVAFSSSIASAAEEAKEKYLIGFNEQEAVSEFVEQVEANDEVAILSEEEEVEIELLHEFETIPVLSVELSPEDVDALELDPAISYIEEDAEVTTMAQSVPWGISRVQAPAAHNRGLTGSGVKVAVLDTGISTHPDLNIRGGASFVPGEPSTQDGNGHGTHVAGTIAALNNSIGVLGVAPSAELYAVKVLGASGSGSVSSIAQGLEWAGNNGMHVANLSLGSPSPSATLEQAVNSATSRGVLVVAASGNSGAGSISYPARYANAMAVGATDQNNNRASFSQYGAGLDIVAPGVNVQSTYPGSTYASLNGTSMATPHVAGAAALVKQKNPSWSNVQIRNHLKNTATSLGSTNLYGSGLVNAEAATR
modifications: (1)..(380) Savinase P29600
Consider B1, for which the “loss of initial enzyme activity” value in data set [2] is reported as 25-70%. Moreover, the “effect of Detergent-1 on protease activity” value in data set [3] is listed as “did not suppress”. Further, in data set [4], the “stain removal activity after storage” value is on record as “full stain removal activity”. Moreover, in data set [5], the “effect of 1M KCl on protease activity” value is “did not inhibit protease activity”.
